Results as given in US20230220589A1.

What was measured:
[1] = molecular target: M44-modified Y NTAA target peptides (M44-Y-P2-peptide); test: encoding assay; P2 T
[2] = molecular target: M44-modified G NTAA target peptides (M44-G-P2-peptide); test: encoding assay; P2 T
[3] = molecular target: M44-modified L NTAA target peptides (M44-L-P2-peptide); test: encoding assay; P2 T
[4] = molecular target: M44-modified F NTAA target peptides (M44-F-P2-peptide); test: encoding assay; P2 T
[5] = molecular target: M44-modified T NTAA target peptides; test: encoding assay; P2 T
[6] = molecular target: M44-modified V NTAA target peptides; test: encoding assay; P2 T
[7] = molecular target: M44-modified A NTAA target peptides (M44-A-P2-peptide); test: encoding assay; P2 T
[8] = molecular target: M44-modified I NTAA target peptides (M44-I-P2-peptide); test: encoding assay; P2 T
[9] = molecular target: M44-modified M NTAA target peptides; test: encoding assay; P2 T
[10] = molecular target: M44-modified P NTAA target peptides; test: encoding assay; P2 T
[11] = molecular target: M44-modified Q NTAA target peptides; test: encoding assay; P2 T
[12] = molecular target: M44-modified N NTAA target peptides; test: encoding assay; P2 T
[13] = molecular target: M44-modified E NTAA target peptides; test: encoding assay; P2 T
[14] = molecular target: M44-modified D NTAA target peptides; test: encoding assay; P2 Q
[15] = molecular target: M44-modified L NTAA target peptides (M44-L-P2-peptide); test: encoding assay; P2 Q
[16] = molecular target: M44-modified H NTAA target peptides; test: encoding assay; P2 Q
[17] = molecular target: M44-modified F NTAA target peptides (M44-F-P2-peptide); test: encoding assay; P2 Q
[18] = molecular target: M44-modified V NTAA target peptides; test: encoding assay; P2 Q
[19] = molecular target: M44-modified A NTAA target peptides (M44-A-P2-peptide); test: encoding assay; P2 Q
[20] = molecular target: M44-modified I NTAA target peptides (M44-I-P2-peptide); test: encoding assay; P2 Q
[21] = molecular target: M44-modified S NTAA target peptides; test: encoding assay; P2 Q
[22] = molecular target: M44-modified M NTAA target peptides; test: encoding assay; P2 Q
[23] = molecular target: M44-modified Q NTAA target peptides; test: encoding assay; P2 Q
[24] = molecular target: M44-modified N NTAA target peptides; test: encoding assay; P2 Q
[25] = molecular target: M44-modified W NTAA target peptides; test: encoding assay; P2 I
[26] = molecular target: M44-modified Y NTAA target peptides (M44-Y-P2-peptide); test: encoding assay; P2 I
[27] = molecular target: M44-modified G NTAA target peptides (M44-G-P2-peptide); test: encoding assay; P2 I
[28] = molecular target: M44-modified D NTAA target peptides; test: encoding assay; P2 I
[29] = molecular target: M44-modified L NTAA target peptides (M44-L-P2-peptide); test: encoding assay; P2 I
[30] = molecular target: M44-modified H NTAA target peptides; test: encoding assay; P2 I
[31] = molecular target: M44-modified F NTAA target peptides (M44-F-P2-peptide); test: encoding assay; P2 I
[32] = molecular target: M44-modified T NTAA target peptides; test: encoding assay; P2 I
[33] = molecular target: M44-modified V NTAA target peptides; test: encoding assay; P2 I
[34] = molecular target: M44-modified A NTAA target peptides (M44-A-P2-peptide); test: encoding assay; P2 I
[35] = molecular target: M44-modified I NTAA target peptides (M44-I-P2-peptide); test: encoding assay; P2 I
[36] = molecular target: M44-modified S NTAA target peptides; test: encoding assay; P2 I
[37] = molecular target: M44-modified M NTAA target peptides; test: encoding assay; P2 I
[38] = molecular target: M44-modified Q NTAA target peptides; test: encoding assay; P2 I
[39] = molecular target: M44-modified N NTAA target peptides; test: encoding assay; P2 I
[40] = molecular target: M44-modified E NTAA target peptides; test: encoding assay; P2 I
[41] = molecular target: M44-modified W NTAA target peptides; test: encoding assay; P2 N
[42] = molecular target: M44-modified D NTAA target peptides; test: encoding assay; P2 N
[43] = molecular target: M44-modified L NTAA target peptides (M44-L-P2-peptide); test: encoding assay; P2 N
[44] = molecular target: M44-modified H NTAA target peptides; test: encoding assay; P2 N
[45] = molecular target: M44-modified F NTAA target peptides (M44-F-P2-peptide); test: encoding assay; P2 N
[46] = molecular target: M44-modified V NTAA target peptides; test: encoding assay; P2 N
[47] = molecular target: M44-modified I NTAA target peptides (M44-I-P2-peptide); test: encoding assay; P2 N
[48] = molecular target: M44-modified S NTAA target peptides; test: encoding assay; P2 N
[49] = molecular target: M44-modified Q NTAA target peptides; test: encoding assay; P2 N
[50] = molecular target: M44-modified N NTAA target peptides; test: encoding assay; P2 N
[51] = molecular target: M44-modified E NTAA target peptides; test: encoding assay; P2 N
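Note: fraction of recording tags encoded.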

B1: engineered M44-A binder (SEQ ID NO: 42) (designed binder, not shown: small tags and cut ends; large carriers)
chain: QVSVQPNFQQDKFLGRWFVAGLASNSSWDREKVAALSGAKMVVAPATDGGLNVTRTMLRKNQCETYTGLLQPAGSLGSYSWRSPHPGSTGSESVVETDYDQYALVYGQGSKGPGEDLRAAALWSRTQTPRAELKEKFTAFSKAQGFTEDTIVFLPQTDKCMTEQ
encoding yield [1]: 0.05 | encoding yield [2]: 0.07 | encoding yield [3]: 0.05 | encoding yield [4]: 0.04 | encoding yield [5]: 0.1 | encoding yield [6]: 0.05 | encoding yield [7]: 0.24 | encoding yield [8]: 0.05 | encoding yield [9]: 0.01 | encoding yield [10]: 0.05 | encoding yield [11]: 0.05 | encoding yield [12]: 0.03 | encoding yield [13]: 0.01 | encoding yield [14]: 0.03 | encoding yield [15]: 0.04 | encoding yield [16]: 0.04 | encoding yield [17]: 0.03 | encoding yield [18]: 0.06 | encoding yield [19]: 0.22 | encoding yield [20]: 0.02 | encoding yield [21]: 0.05 | encoding yield [22]: 0.01 | encoding yield [23]: 0.02 | encoding yield [24]: 0.05 | encoding yield [25]: 0.02 | encoding yield [26]: 0.1 | encoding yield [27]: 0.1 | encoding yield [28]: 0.03 | encoding yield [29]: 0.03 | encoding yield [30]: 0.04 | encoding yield [31]: 0.02 | encoding yield [32]: 0.12 | encoding yield [33]: 0.11 | encoding yield [34]: 0.2 | encoding yield [35]: 0.08 | encoding yield [36]: 0.1 | encoding yield [37]: 0.01 | encoding yield [38]: 0.03 | encoding yield [39]: 0.03 | encoding yield [40]: 0.03 | encoding yield [41]: 0.01 | encoding yield [42]: 0.02 | encoding yield [43]: 0.04 | encoding yield [44]: 0.03 | encoding yield [45]: 0 | encoding yield [46]: 0.08 | encoding yield [47]: 0.03 | encoding yield [48]: 0.05 | encoding yield [49]: 0.04 | encoding yield [50]: 0.05 | encoding yield [51]: 0.03
